# Data published in US20150238573A1, “NUTRITIONAL FOOD AND FEED, COMPOSITION, PROCESSING AND METHOD OF USE” (Nutrinia Ltd., priority 2004, published 2015).
# Tests used:
# [1] = Clinical trials of oral insulin in preterm infants; format: in vivo, human
# Text: Clinical trials were done involving supplementation of preterm infant orally-fed with Insulin.
# [2] = Influence on vitamin C in the preterm RTF formula; format: physicochemical; details: 0, 6 and 12 hours from insulin supplementation
# [3] = Stability in liquid infant formula over time (Elisa kit); format: physicochemical
# Text: The InsuMeal™ is intended to be consumed immediately after solubilization in the infant formula. […] Furthermore, in order to evaluate the final product homogeneity, at each time interval, sampling was taken at the upper, middle and lower layers of the sampled RTF bottle, as well as after formula liquid stirring.
substance,measurement,setting,value
Insulin,time to full enteral feeding,"[1]; 4 Units per Kg. per day oral for 28 days, control 20 days",≤ 11 days
same,Lactase activity,"[1]; trial group, control 6.5",13.3
same,Gastric residuals,"[1]; trial group, control 54",22
same,vitamin C concentration in formula after insulin supplementation,[2],No significant differences
same,Insulin concentration,"[3]; 0 hour from insulin addition, 100 μU in 60 ml preterm RTF formula",95.43 μU
same,Insulin concentration,[3]; 3 hour from insulin addition,105.47 μU
same,Insulin concentration,[3]; 6 hour from insulin addition,111.59 μU
same,Insulin concentration,[3]; 9 hour from insulin addition,93.34 μU
same,Insulin concentration,[3]; 12 hour from insulin addition,99.55 μU
same,Insulin concentration,[3]; 15 hour from insulin addition,105.38 μU
same,Insulin concentration,[3]; 18 hour from insulin addition,96.74 μU
same,Insulin concentration,[3]; 21 hour from insulin addition,93.78 μU
same,Insulin concentration,[3]; 24 hour from insulin addition,104.5 μU
same,time highly stable after addition to liquid infant formula,[3]; liquid infant formula,at least 24 hr
